According to article PMC4157633 (Laboratory investigation; a journal of technical methods …, 2014):

B1: human carcinoembryonic antigen (hCEA) protein, purified (natural protein, UniProt P06731 35-685, looked up)
chain: KLTIESTPFNVAEGKEVLLLVHNLPQHLFGYSWYKGERVDGNRQIIGYVIGTQQATPGPAYSGREIIYPNASLLIQNIIQNDTGFYTLHVIKSDLVNEEATGQFRVYPELPKPSISSNNSKPVEDKDAVAFTCEPETQDATYLWWVNNQSLPVSPRLQLSNGNRTLTLFNVTRNDTASYKCETQNPVSARRSDSVILNVLYGPDAPTISPLNTSYRSGENLNLSCHAASNPPAQYSWFVNGTFQQSTQELFIPNITVNNSGSYTCQAHNSDTGLNRTTVTTITVYAEPPKPFITSNNSNPVEDEDAVALTCEPEIQNTTYLWWVNNQSLPVSPRLQLSNDNRTLTLLSVTRNDVGPYECGIQNELSVDHSDPVILNVLYGPDDPTISPSYTYYRPGVNLSLSCHAASNPPAQYSWLIDGNIQQHTQELFISNITEKNSGLYTCQANNSASGHSRTTVKTITVSAELPKPSISSNNSKPVEDKDAVAFTCEPEAQNTTYLWWVNGQSLPVSPRLQLSNGNRTLTLFNVTRNDARAYVCGIQNSVSANRSDPVTLDVLYGPDTPIISPPDSSYLSGANLNLSCHSASNPSPQYSWRINGIPQQHTQVLFIAKITPNNNGTYACFVSNLATGRNNSIVKSITVSASGTSPGLSA

Assays:
[1] = biological target: B1; test: ELISA
[2] = biological target: anti-EGFR VHH122-fiber-fibritin chimera displayed on the AdVHH122Luc vector (human adenovirus serotype 5 | …); test: ELISA

Binder | EC50 [1] | binding result [2]
anti-hCEA VHH JJB-B2, thioredoxin fusion protein (VHH) VHH: QVQLVETGGGLVQPGGSLRLSCAASESIFSTYAMGWYRQAPGKQRELVAAITTNDIANYADSVKGRFTISRDNAKNTVYLQMNSLNPEDTAVYYCNAIFPPYNYWGQGTQVTVSS | ~0.2 nM | –
B1 | – | no binding
anti-hCEA VHH JJB-A3, thioredoxin fusion protein (VHH) VHH: QVQLVETGGGLVQPGGSLRLSCAASGRISDINAMGWYRQAPGKQRELVAAITSVGSNYVDSVKGRFTISKDNAKNTVYLQMYSLNPEDTAVYYCNTQCGTWLVCDGRDQWGKGTLVTVSS | ~0.15 nM | –
anti-hCEA VHH JJB-D1, thioredoxin fusion protein (VHH) VHH: QVQLVESGGLVQAGGSLRPSCAASGSIFLQNAMGWYRQVPGKQRELVAAITSVDSTNYADSVKGRFTISRDNAKNTVYLQMNSLKPEDTAVYYCNAPWNSDYHWGKGTLVTVSS | ~1 nM | –
anti-hCEA VHH JJB-B5, thioredoxin fusion protein (VHH) VHH: QVQLVETGGGLVQPGGSLRPSCTASGSIFSIYAMGWYRQASGKQRELVALITRDEVFNYADSVKGRFTISRDNAKDTVYLQMNSLKPEDTAVYYCWVETVNDHYNSGVEDYWGQGTQVTVSS | ~50 nM | –
